Test results taken from patent US11453711B2, “Fusion proteins of GLP-1 and GDF15 and conjugates thereof” (BEIJING QL BIOPHARMACEUTICAL CO., LTD., priority 2019, dated 2022).

Tests used:
[1] = Efficacy in DIO mice, daily sc 28 days; assay type: in vivo, DIO male C57BL/6 mice
Method: FIGS. 6A-6E show In vivo efficacy in DIO mice. To evaluate the body weight, food intake and glucose effects of the fusion proteins, 17 week old DIO mice (C57BL/6 mice on high fat diet for 13 weeks) were dosed everyday subcutaneously with different concentrations of proteins for 28 days. […] FIGS. 6D and 6E show body weight change with dose titrations of MLC089 and MLC093 at 3, 10 and 30 nmol/kg. Data are expressed as mean values and standard error (SEM) for FIGS. 6A, 6C, 6D and 6E. n=5 for each treatment group. For FIG. 6B, a pooled food intake was measured for each treatment group.
17 week old DIO male C57BL/6 mice (˜45 g) were injected everyday subcutaneously with designated proteins (i.e., MLC089, MLC093) for 28 days. Food intake and body weight were measured daily and five animals were used for each treatment group. Fasting glucose was also monitored on designated days. Body weight and glucose were monitored for each individual animal, but food intake for each group animals was measured together. Day 1 and Day 28 are first day and last day of molecule dosage. % BW loss=100*(BW on Day n-BW on Day 1)/(BW on Day 1). Cumulative food intake on Day n represents sum of food intake from Day 1 to Day n. Terminal blood was collected and EDTA-2K plasma was prepared and frozen at −80 C for biomarker measurement. Liver was also collected and frozen in liquid nitrogen and store at −80 C. Data are indicated as mean values and standard error (SEM) or pooled values.

[2] = PK study in non-human primates, single sc dose 5 nmol/kg, plasma ELISA; details: monkey, single sc dose 5 nmol/kg; for Cmax: read-out: Cmax (nmol/L)
Method: Plasma samples were collected pre-dose (−5 min), 2 hr, 4 hr, 6 hr, 8 hr, 24 hr, 48 hr, 72 hr, 96 hr, 120 hr, 144 hr, 216 hr, 288 hr, 360 hr, 432 hr and 504 hr after the injection. The concentrations of the fusion protein conjugates in the plasma were measured by an ELISA assay which has immunoreactivity towards both GDF15 and intact N-terminal of GLP-1. Based on the graph showing plasma concentration of each protein versus time after subcutaneous injection, the pharmacokinetic parameters (including Tmax, Cmax, T1/2, AUC) were calculated by WinNonlin software.

[3] = Pharmacokinetic measurement in mouse, single sc dose 30 nmol/kg, plasma ELISA; details: for Cmax: read-out: Cmax (nmol/L), single sc dose 30 nmol/kg; for AUC0-24 h / Terminal t1/2 / Tmax: single sc dose 30 nmol/kg
[4] = Efficacy in db/db mice: body weight, food intake, glucose, biomarkers, daily sc 14 days; assay type: in vivo
Method: FIGS. 4A-4D show In vivo efficacy in db/db mice. To evaluate the body weight, food intake and glucose effects of the fusion proteins, 8 week old male db/db mice were dosed everyday subcutaneously with 30 nmol/kg protein for 14 days. […] Compared to Vehicle control: ***, p<0.001. Data are expressed as mean values and standard error (SEM) for FIGS. 4A, 4B and 4D. n=5 for each treatment group. For FIG. 4C, a pooled food intake was measured for each treatment group.
FIGS. 5A-5F show In vivo efficacy in db/db mice. To evaluate the body weight, food intake and glucose effects of the fusion proteins, 8 week old male db/db mice were dosed everyday subcutaneously with different concentrations of proteins for 14 days. FIGS. 5A and 5B show body weight loss upon protein treatments from Day1 to Day15. […] Compared to Vehicle control: ***, p<0.001; **, p<0.01; *, p<0.05; ns, non-statistically significant; FIGS. 5D and 5E show cumulative food intake with protein treatments from Day1 to Day15. […] Compared to Vehicle control: ***, p<0.001**, p<0.01; *, p<0.05; ns, non-statistically significant. Data are expressed as mean values and standard error (SEM) for FIGS. 5A, 5B, 5C and 5F. n=5 for each treatment group. For FIGS. 5D and 5E, a pooled food intake was measured for each treatment group.
FIGS. 8A-8I show In vivo efficacy in db/db mice. To evaluate the body weight, food intake and glucose effects of the fusion proteins, 8 week old male db/db mice were dosed everyday subcutaneously with different concentrations of proteins for 14 days. […] FIGS. 8D-8F show body weight loss upon dose titrations of fusion protein conjugates. […] Data are expressed as mean values and standard error (SEM) for FIGS. 8A and 8C-I. n=5 for each treatment group. For FIG. 8B, a pooled food intake was measured for each treatment group.
Selected fusion protein conjugates are assessed in disease animal models (DIO mice, db/db mice, etc.) to determine body weight, food intake, glucose efficacy with dose responses. Some biomarkers are also measured, including fasting insulin, plasma triglyceride, cholesterol, liver triglyceride, and inflammatory biomarkers (ALT, AST and CRP).
8 week old male db/db mice were injected everyday subcutaneously with designated proteins for 14 days. Age matched lean mice were used as control. Food intake and body weight were measured daily and five animals were used for each treatment group. Fasting glucose were tested on designated days as shown in each figure. Body weight was monitored for each individual animal, but food intake for each group animals was measured together. Day 1 and Day 14 are first day and last day of molecule dosage. % BW loss=100*(BW on Day n-BW on Day 1)/(BW on Day 1). Cumulative food intake on Day n represents sum of food intake from Day 1 to Day n. Terminal blood was collected and EDTA-2K plasma was prepared and frozen at −80° C. for biomarker measurement. Liver was also collected and frozen in liquid nitrogen and store at −80° C. Data are indicated as mean values and standard error (SEM) or pooled values. Statistical analysis was performed by One-way ANOVA.

[5] = Body weight and food intake in C57BL/6 mice, fusion protein conjugates, 30 nmol/kg daily 10 days; assay type: in vivo
How it was run: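 Male C57BL/6 mice received fusion protein conjugates by daily subcutaneous injection, with dosing running from Day 1 to Day 10. Body weight was recorded daily per animal and food intake daily per group. Body weight reduction was expressed relative to vehicle percent loss from Day 1. Cumulative food intake reduction was expressed as percent decrease versus vehicle.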

[6] = Body weight and food intake in lean C57BL/6 mice, lysine conjugated compounds, 15 nmol/kg daily sc 14 days; assay type: in vivo
Method: FIGS. 1A-1F show In vivo activities of fusion proteins. To evaluate the body weight and food intake effects of the fusion proteins, 10 week old male C57BL/6J mice were dosed everyday subcutaneously with 15 nmol/kg protein for 14 days. Food intake and body weight were measured daily. FIGS. 1A and 1B show body weight loss upon protein treatments from Day1 to Day15. […] FIGS. 1D and 1E show cumulative food intake with protein treatments from Day1 to Day15. […] Vehicle: 1.42 mg/mL disodium phosphate dihydrate, 14 mg/mL propylene glycol pH7.4. Data are expressed as mean values and standard error (SEM) for FIGS. 1A, 1B and 1C. n=5 for each treatment group. For FIGS. 1D, 1E and 1F, a pooled food intake was measured for each treatment group.
10 week old male C57BL/6 mice were injected everyday subcutaneously with 15 nmol/kg of the fusion protein conjugates (i.e., MLC002, MLC 004, MLC 005, MLC 006, MLC 007, MLC 008, and MLC 009) for 14 days. Food intake and body weight were measured daily and five animals were used for each treatment group. Body weight (BW) was monitored for each individual animal, but food intake for each group animals was measured together. Day 1 and Day 14 are first day and last day of molecule dosage. % BW loss=100*(BW on Day n-BW on Day 1)/(BW on Day 1). Cumulative food intake on Day n represents sum of food intake from Day 1 to Day n. Data are indicated as mean values and standard error (SEM) or pooled values. Statistical analysis was performed by One-way ANOVA. Body weight reduction on Day 11 is calculated by −1*(% BW loss−% BW loss of vehicle group); Cumulative food intake reduction is calculated by −100*(cumulative food intake-cumulative food intake of vehicle)/cumulative food intake of vehicle.

[7] = 30 nmol/kg, FIG. 8A-C, versus Semaglutide, Tirzepatide and MLC014
[8] = C57 mice, 15 nmol/kg daily sc, Day11

B1: MLC089: fusion polypeptide SEQ ID NO: 379 conjugated with Moiety B at 39C of Linker (conjugate)
chain: HGEGTFTSDVSSYLEEQAAKEFIAWLVRGGGGAQPGAQPGAQPGAQPGAQPGAQPGAQPGAQPGQEPGQCPGQEPGAQPGQEPGAQPGQEPGAQPGQEPGAQPGQEPGAQPARQGDHCPLGPGRCCRLHTVRASLEDLGWADWVLSPREVQVTMCIGACPSQFRAANLHAQIKTSLHRLKPDTVPAPCCVPASYNPMVLIQKTDTGVSLQTYDDLLAKDCHCI
modifications: Moiety B conjugated at linker Cys39
[1]; DIO mice, 30 nmol/kg daily 28 days, FIG. 6A
  body weight reduction efficacy: much better body weight reduction efficacy than Semaglutide and GDF15 derivative (MLC014)
[1]; DIO mice, 3, 10 and 30 nmol/kg, FIGS. 6D and 6E
  dose dependence of body weight reduction: dose dependent efficacy on body weight reduction
[1]; DIO mice, FIG. 6C
  fasting glucose: reached similar level to Semaglutide
[1]; DIO study, FIG. 6
  efficacy: better efficacy than Semaglutide and GDF15 derivative (MLC014)
[2]
  AUC0-96 h: 3.413 µM·h
  Terminal t1/2: 54 h
  Tmax: 8 h
  Cmax: 70.5 nmol/L
[3]
  Cmax: 116 nmol/L
  AUC0-24 h: 1.9822 µM·h
  Terminal t1/2: 14.7 h
  Tmax: 10.7 h
[4]; [7]
  body weight loss: more body weight loss, food intake suppression and glycemic control
  food intake suppression: more body weight loss, food intake suppression and glycemic control
  glycemic control: more body weight loss, food intake suppression and glycemic control
[4]; FIG. 8 study
  efficacy: better efficacy than Semaglutide and GDF15 derivative (MLC014)
[5]
  Body weight reduction at 30 nmol/kg (% reduction compared to vehicle)(Day11): 24.6%
  Cumulative food intake reduction at 30 nmol/kg (% reduction compared to vehicle)(Day11): 29.9%

B2: MLC004: fusion polypeptide SEQ ID NO: 251 conjugated with Moiety A at 26K of GLP-1 (conjugate)
chain: HGEGTFTSDVSSYLEEQAAKEFIAWLVRGGGGQEPGAQPGQEPGAQPGQEPGAQPGQEPGAQPGQEPGAQPGQEPGAQPGAQPGAQPGAQPGAQPGAQPGAQPGAQPGAQPARQGDHCPLGPGRCCRLHTVRASLEDLGWADWVLSPREVQVTMCIGACPSQFRAANLHAQIKTSLHRLRPDTVPAPCCVPASYNPMVLIQRTDTGVSLQTYDDLLARDCHCI
modifications: Moiety A conjugated at K26
[6]; 15 nmol/kg daily sc 14 days, versus Semaglutide
  BW reduction: statistically significantly enhanced BW loss efficacy than Semaglutide
[6]; [8]
  Body weight reduction at 15 nmol/kg (% reduction compared to vehicle)(Day11): 13.9%
  Cumulative food intake reduction at 15 nmol/kg (% reduction compared to vehicle)(Day11): 21.8%
[2]
  AUC0-96 h: 0.79 µM·h
  Terminal t1/2: 13 h
  Tmax: 8 h
  Cmax: 32.1 nmol/L
[3]
  Cmax: 15.1 nmol/L
  AUC0-24 h: 0.1745 µM·h
  Terminal t1/2: 7.4 h
  Tmax: 3.3 h
[5]
  Body weight reduction at 30 nmol/kg (% reduction compared to vehicle)(Day11): 18.3%
  Cumulative food intake reduction at 30 nmol/kg (% reduction compared to vehicle)(Day11): 35.0%
